Data: article doi:10.1101/2020.08.27.270058

Columns and labels:
[1] = target: MglB (Myxococcus xanthus) (UniProt Q1DB03); test: ITC
[2] = target: MglB (Myxococcus xanthus) (UniProt Q1DB03); test: SEC
[3] = target: MglC (Myxococcus xanthus); test: SEC
[4] = target: MglB (Myxococcus xanthus) (UniProt Q1DB03); test: SAXS
[5] = target: MglC (Myxococcus xanthus); test: SAXS
[6] = target: T1, MglB (Myxococcus xanthus), Q1DB03; test: SEC; settings: remark: other sources report otherwise
T1 chain: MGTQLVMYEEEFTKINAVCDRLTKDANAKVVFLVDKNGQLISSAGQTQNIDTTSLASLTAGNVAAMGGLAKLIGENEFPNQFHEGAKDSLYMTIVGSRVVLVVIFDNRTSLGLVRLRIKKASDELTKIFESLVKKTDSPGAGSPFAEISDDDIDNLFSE

[7] = target: T1, MglB (Myxococcus xanthus), Q1DB03; test: SAXS; settings: remark: other sources report otherwise

Row | Kd [1] [nM] | dH [1] [kcal/mol] | stoichiometry N [1] | stoichiometry N (MglC:MglB (2:4)) [2] | stoichiometry N [3] | stoichiometry N (MglC:MglB (2:4)) [4] | stoichiometry N [5] | stoichiometry N [6] | stoichiometry N [7] | Molecule
1 | 625 | 6.94 | 0.5 | 0.5 | 2 | 0.5 | 2 |  |  | MglC (natural protein)
2 |  |  |  |  |  |  |  | 2 | 2 | MglB, Q1DB03 1-159 (natural protein) MGTQLVMYEEEFTKINAVCDRLTKDANAKVVFLVDKNGQLISSAGQTQNIDTTSLASLTAGNVAAMGGLAKLIGENEFPNQFHEGAKDSLYMTIVGSRVVLVVIFDNRTSLGLVRLRIKKASDELTKIFESLVKKTDSPGAGSPFAEISDDDIDNLFSE
